Data taken from article PMC11490551, “The homeodomain regulates stable DNA binding of prostate cancer target ONECUT2”.

Tests used:
[1] = molecular target: T1, ONECUT2 (OC2) residues 317-417, containing the CUT domain (Homo sapiens (Human), UniProt O95948); assay: ITC (implied; data not shown); absence of DNA
T1 chain: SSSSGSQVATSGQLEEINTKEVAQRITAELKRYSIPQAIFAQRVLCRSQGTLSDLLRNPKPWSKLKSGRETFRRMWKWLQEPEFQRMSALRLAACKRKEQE

[2] = molecular target: T2, OC2SQ (human, UniProt O95948 330-485, S364A;Q365A); assay: ITC; ITC: 1X PBS pH 7.4, 0.005% Tween-20, 1 mM beta-ME, 25 C (also 12 and 30 C for heat capacity); BLI: 1X PBS, 0.5 mM TCEP, 0.005% Tween-20; settings: protein: recombinant; tags: His6 removed by TEV
T2 sequence: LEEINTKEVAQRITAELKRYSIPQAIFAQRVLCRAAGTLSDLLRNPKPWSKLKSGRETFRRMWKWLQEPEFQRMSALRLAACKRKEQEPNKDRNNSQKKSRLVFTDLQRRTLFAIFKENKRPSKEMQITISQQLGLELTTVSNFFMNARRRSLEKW

[3] = molecular target: T3, OC2R479 (human, UniProt O95948 330-485, R479A); assay: as above; settings: protein: recombinant; tags: His6 removed by TEV
T3 sequence: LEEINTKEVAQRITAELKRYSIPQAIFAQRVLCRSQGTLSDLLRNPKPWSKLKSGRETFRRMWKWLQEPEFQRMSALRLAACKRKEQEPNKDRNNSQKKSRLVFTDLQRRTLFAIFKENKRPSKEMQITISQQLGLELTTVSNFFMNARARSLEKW

[4] = molecular target: T4, OC2R480 (human, UniProt O95948 330-485, R480A); assay: as above; settings: protein: recombinant; tags: His6 removed by TEV
T4 sequence: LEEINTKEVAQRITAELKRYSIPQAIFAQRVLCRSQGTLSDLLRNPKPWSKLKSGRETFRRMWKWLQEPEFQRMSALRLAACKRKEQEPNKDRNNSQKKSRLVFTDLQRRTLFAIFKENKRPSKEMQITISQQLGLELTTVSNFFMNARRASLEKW

[5] = molecular target: T5, OC2N (human, UniProt O95948 330-485, N476A); assay: as above; settings: protein: recombinant; tags: His6 removed by TEV
T5 sequence: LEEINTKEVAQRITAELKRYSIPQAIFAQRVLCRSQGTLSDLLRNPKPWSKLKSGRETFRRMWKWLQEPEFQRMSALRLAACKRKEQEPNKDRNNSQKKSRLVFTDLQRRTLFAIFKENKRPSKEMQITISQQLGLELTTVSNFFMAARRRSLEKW

[6] = molecular target: T6, OC2 CUT domain (human, UniProt O95948 317-417); assay: ITC; 25 C; ITC: 1X PBS pH 7.4, 0.005% Tween-20, 1 mM beta-ME, 25 C (also 12 and 30 C for heat capacity); BLI: 1X PBS, 0.5 mM TCEP, 0.005% Tween-20; settings: protein: recombinant; tags: His6-MBP, removed by TEV (same protocol as OC2)
T6 sequence: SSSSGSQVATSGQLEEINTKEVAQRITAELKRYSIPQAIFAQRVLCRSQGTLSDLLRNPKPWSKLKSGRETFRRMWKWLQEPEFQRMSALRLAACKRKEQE

[7] = molecular target: T7, OC2 (CUT-HOX DNA binding region, wild type) (human, UniProt O95948 330-485); assay: as above; settings: protein: recombinant; tags: His6 removed by TEV
T7 sequence: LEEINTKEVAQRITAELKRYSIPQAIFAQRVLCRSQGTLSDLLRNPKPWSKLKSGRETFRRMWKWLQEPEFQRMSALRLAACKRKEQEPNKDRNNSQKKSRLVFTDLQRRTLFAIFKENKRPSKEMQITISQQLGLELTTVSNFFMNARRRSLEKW

[8] = molecular target: T8, OC2 CUT domain;OC2 HOX domain (human;human, UniProt O95948;O95948 317-417;420-490, |); assay: ITC; CUT and HOX as separate polypeptides; ITC: 1X PBS pH 7.4, 0.005% Tween-20, 1 mM beta-ME, 25 C (also 12 and 30 C for heat capacity); BLI: 1X PBS, 0.5 mM TCEP, 0.005% Tween-20; settings: protein: recombinant;recombinant; copies: 1;1
T8 sequence 1: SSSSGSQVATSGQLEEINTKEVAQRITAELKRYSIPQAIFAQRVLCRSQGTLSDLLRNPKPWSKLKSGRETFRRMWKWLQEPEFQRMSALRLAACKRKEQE
T8 sequence 2: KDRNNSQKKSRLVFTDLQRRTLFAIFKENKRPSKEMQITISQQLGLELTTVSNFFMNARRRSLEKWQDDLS

B1: ONECUT2 (OC2) residues 420-490, containing the HOX domain (protein)
chain: KDRNNSQKKSRLVFTDLQRRTLFAIFKENKRPSKEMQITISQQLGLELTTVSNFFMNARRRSLEKWQDDLS
B1: no binding [1].

B2: PEG10 promoter DNA (12mer duplex) (dsDNA)
DNA 1: AGATCGATTTGC
DNA 2: GCAAATCGATCT
B2 was tested, and the Kd [2] was 51 ± 9 nM, the Kd [3] was 6 nM and the Kd [4] was 47 nM. The Kd [5] was 70 ± 11 nM, the Kd [6] was 2030 ± 262 nM and the Kd [7] was 7 ± 2 nM. For the same binder, the Kd [8] was 1380 ± 279 nM.
